Laboratory results taken from patent US20220378887A1 (GENOIMMUNE THERAPEUTICS, published 2022).

Biological target: T1, HLA-A*11:01 (MHC-I molecules on the surfaces of T2 cells) (human)
T1 construct: It only names the antibody against 'the corresponding HLA typing (HLA-A*11:01)'; also called HLA molecules
Test: T2 cell MHC-I stabilisation assay, flow cytometry with FITC anti-HLA-A*11:01 antibody
Procedure: The synthesized polypeptides were added to 2*10⁵ T2 cells, and human β2 micro-globulin (final concentration of 3 μg/ml) was added and cultivated in 24-well plate. The plate was cultured in an incubator (37° C., 5% CO₂) overnight.
200 g of cultured cells was centrifuged for 5 minutes to collect the cells. After washing twice with PBS, the cells were directly incubated with FITC-labeled monoclonal antibody against the corresponding HLA typing (HLA-A*11:01), and maintained at 4° C. for 30 minutes.

B1: VTGAVGVGK polypeptide (KRAS; SEQ ID NO: 3) (peptide)
peptide: VTGAVGVGK
notes: Synthesized mutant KRAS neoantigen peptide, printed as a 9-mer; also called core polypeptide
FI (fluorescence index): 2.37

B2: VTVGAVGVGK polypeptide (KRAS; SEQ ID NO: 4) (peptide)
peptide: VTVGAVGVGK
notes: Synthesized mutant KRAS neoantigen peptide; also called core polypeptide
FI (fluorescence index): 2.02

B3: VSVGAVGVGK polypeptide (KRAS; SEQ ID NO: 6) (peptide)
peptide: VSVGAVGVGK
notes: as for B2
FI (fluorescence index): 2.42

B4: VTVGAAGVGK polypeptide (KRAS; SEQ ID NO: 5) (peptide)
peptide: VTVGAAGVGK
notes: as for B2
FI (fluorescence index): 2.12

B5: VTVGADGVGK polypeptide (KRAS; SEQ ID NO: 1) (peptide)
peptide: VTVGADGVGK
notes: as for B2
FI (fluorescence index): 2.83
